Paper PMC7406630, “A new ^68Ga-labeled somatostatin analog containing two iodo-amino acids for dual somatostatin receptor subtype 2 and 5 targeting” (EJNMMI Research, 2020)
Like-named read-outs stand apart in the source and are kept apart here.

Columns and labels:
[1] = assay type: physicochemical; details: pH 7.4
Description: To a pre-saturated mixture of 500 μL n-octanol and 500 μL of phosphate-buffered saline (PBS) at pH 7.4, 10 μL of 1 μM of ^67Ga-labeled conjugates was added. The solutions were vortexed for 1 h to reach equilibrium and then centrifuged (3000 rpm) for 10 min. From each phase, 100 μL was removed and measured in a γ-counter. The partition coefficient was calculated as the average of the logarithmic values (n = 3) of the ratio between the radioactivity in the organic and the PBS phase.

in vivo [2] = details: female, mouse, 100 pmol, total radioactivity
in vivo [3] = details: female, mouse, 100 pmol, total radioactivity; remark: listed apart in the source
human SST2 [4] = target: T1, human SST2 (Homo sapiens, UniProt P30874); experiment: Competition binding assay on HEK-SST2 cells with ^125I-labeled SS-14; details: read-out: SST2 IC50, nM (95% CI), ^125I-SS-14 radioligand, 3 to 5 sessions in duplicate
T1 construct: expressed in transfected cells; host or cells: HEK293 (HEK-SST2)
T1 sequence (P30874 whole entry): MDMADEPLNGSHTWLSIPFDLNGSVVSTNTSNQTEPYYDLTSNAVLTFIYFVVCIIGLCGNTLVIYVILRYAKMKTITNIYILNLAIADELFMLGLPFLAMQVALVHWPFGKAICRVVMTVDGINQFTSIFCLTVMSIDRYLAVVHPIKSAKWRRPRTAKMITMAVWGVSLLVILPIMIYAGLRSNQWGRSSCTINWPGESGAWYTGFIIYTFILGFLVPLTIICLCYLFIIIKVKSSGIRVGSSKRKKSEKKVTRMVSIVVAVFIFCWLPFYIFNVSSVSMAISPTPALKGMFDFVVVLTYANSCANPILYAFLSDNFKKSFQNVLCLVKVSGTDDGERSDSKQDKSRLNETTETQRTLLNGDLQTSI
Description: (§1) Human Embryonic Kidney (HEK293) cells (a kind gift from Dr. A. Mühlethaler-Mottet, Pediatric Hematology-Oncology Unit, Lausanne University Hospital, Switzerland) were stably transfected with plasmids encoding the human SST2 and SST5 (HEK-SST2 and HEK-SST5) and cultivated as previously described. Non-transfected HEK cells were used as a negative control.
(§2) Binding assays were performed as described previously.

human SST5 [5] = target: T2, human SST5 (Homo sapiens, UniProt P35346); experiment: Competition binding assay on HEK-SST5 cells with ^125I-labeled SS-14; details: read-out: SST5 IC50, nM (95% CI), ^125I-SS-14 radioligand, 3 to 5 sessions in duplicate
T2 construct: expressed in transfected cells; host or cells: HEK293 (HEK-SST5)
T2 sequence (P35346 whole entry): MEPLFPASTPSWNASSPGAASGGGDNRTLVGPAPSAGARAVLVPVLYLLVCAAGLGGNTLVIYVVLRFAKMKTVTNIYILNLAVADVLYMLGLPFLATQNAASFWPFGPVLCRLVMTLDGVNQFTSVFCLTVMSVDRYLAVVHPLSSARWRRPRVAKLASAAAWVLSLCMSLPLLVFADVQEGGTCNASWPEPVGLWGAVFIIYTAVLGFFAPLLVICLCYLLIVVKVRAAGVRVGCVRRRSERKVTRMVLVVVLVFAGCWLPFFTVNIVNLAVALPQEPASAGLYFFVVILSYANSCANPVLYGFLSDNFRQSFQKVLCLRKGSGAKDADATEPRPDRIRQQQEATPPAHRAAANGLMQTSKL
Description: as §1, §2

human SST2 [6] = target: T1, human SST2; experiment: cAMP accumulation experiments on HEK-SST2 cells (agonistic potency); assay type: cell-based; details: for EC50: read-out: SST2 EC50, nM (95% CI), cAMP, HEK-SST2 cells, 3 to 4 sessions in duplicate
Description: (§3) Human Embryonic Kidney (HEK293) cells (a kind gift from Dr. A. Mühlethaler-Mottet, Pediatric Hematology-Oncology Unit, Lausanne University Hospital, Switzerland) were stably transfected with plasmids encoding the human SST2 and SST5 (HEK-SST2 and HEK-SST5) and cultivated as previously described [25]. Non-transfected HEK cells were used as a negative control.
(§4) cAMP accumulation experiments on HEK-SST2 and HEK-SST5 cells were performed with cAMP direct immunoassay kit (colorimetric, K371, BioVision) as described previously [25].

human SST5 [7] = target: T2, human SST5; experiment: cAMP accumulation experiments on HEK-SST5 cells (agonistic potency); assay type: cell-based; details: read-out: SST5 EC50, nM (95% CI), 3 to 4 sessions in duplicate
Description: as §3, §4

SST5 [8] = test system: SST5; set-up: method as in PMID 25918675; details: cited from earlier work
human SST2 [9] = target: T1, human SST2; set-up: method as in PMID 29523357; details: read-out: SST2 IC50, nM (95% CI); HEK-SST2 cells, ^125I-SS-14 radioligand; published earlier but measured head-to-head; cited from earlier work
human SST5 [10] = target: T2, human SST5; set-up: method as in PMID 29523357; details: read-out: SST5 IC50, nM (95% CI); HEK-SST5 cells, ^125I-SS-14 radioligand; published earlier but measured head-to-head; cited from earlier work
human SST2 [11] = target: T1, human SST2; set-up: method as in PMID 29523357; details: read-out: SST2 EC50, nM (95% CI); cAMP, HEK-SST2 cells; cited from earlier work
human SST5 [12] = target: T2, human SST5; set-up: method as in PMID 29523357; details: read-out: SST5 EC50, nM (95% CI); cAMP, HEK-SST5 cells; cited from earlier work
SST2 = test system: SST2; set-up: method as in PMID 10774879; details: cited from earlier work
SST5 [13] = test system: SST5; set-up: method as in PMID 10774879; details: cited from earlier work
[14] = in vivo; cited from earlier work
[15] = athymic Nude-Foxn1^nu/Foxn1^+, Adrenal uptake
[16] = athymic Nude-Foxn1^nu/Foxn1^+, Blood uptake
[17] = athymic Nude-Foxn1^nu/Foxn1^+, Femur uptake
[18] = athymic Nude-Foxn1^nu/Foxn1^+, Heart uptake
[19] = athymic Nude-Foxn1^nu/Foxn1^+, Intestine uptake
[20] = athymic Nude-Foxn1^nu/Foxn1^+, Kidney uptake
[21] = athymic Nude-Foxn1^nu/Foxn1^+, Lung uptake
[22] = athymic Nude-Foxn1^nu/Foxn1^+, Muscle uptake
[23] = athymic Nude-Foxn1^nu/Foxn1^+, Pancreas uptake
[24] = athymic Nude-Foxn1^nu/Foxn1^+, Pituitary uptake
[25] = athymic Nude-Foxn1^nu/Foxn1^+, SST2 tumor uptake
[26] = athymic Nude-Foxn1^nu/Foxn1^+, SST5 tumor uptake
[27] = athymic Nude-Foxn1^nu/Foxn1^+, Stomach uptake
[28] = athymic Nude-Foxn1nu/Foxn1+, Spleen uptake
[29] = athymic Nude-Foxn1^nu/Foxn1^+, Liver uptake
[30] = athymic Nude-Foxn1nu/Foxn1+, Pancreas uptake

## C[C@@H](O)[C@@H]1NC(=O)[C@H](CCCCN)NC(=O)[C@@H](Cc2c[nH]c3ccccc23)NC(=O)[C@H](Cc2cccc3ccccc23)NC(=O)[C@@H](NC(=O)[C@@H](Cc2ccccc2)NC(=O)CN2CCN(CC(=O)O)CCN(CC(=O)O)CCN(CC(=O)O)CC2)CSSC[C@@H](C(=O)N[C@H](CO)[C@@H](C)O)NC1=O [[^67Ga]Ga-DOTA-NOC, metal not drawn]
[1]
  log D: − 1.6 ± 0.1

## CC(C)[C@@H]1NC(=O)[C@H](CCCCN)NC(=O)[C@@H](Cc2c[nH]c3ccccc23)NC(=O)[C@H](Cc2ccc(O)c(I)c2)NC(=O)[C@@H](NC(=O)[C@@H](Cc2ccc(N)c(I)c2)NC(=O)CN2CCN(CC(=O)O)CCN(CC(=O)O)CCN(CC(=O)O)CC2)CSSC[C@@H](C(=O)N[C@H](C(N)=O)[C@@H](C)O)NC1=O [[^67Ga]Ga-DOTA-ST8950, metal not drawn]
[1]
  log D: − 1.0 ± 0.1

## C[C@@H](O)[C@H](NC(=O)[C@@H]1CSSC[C@H](NC(=O)[C@@H](Cc2ccccc2)NC(=O)CN2CCN(CC(=O)O)CCN(CC(=O)O)CCN(CC(=O)O)CC2)C(=O)N[C@@H](Cc2ccc(O)cc2)C(=O)N[C@H](Cc2c[nH]c3ccccc23)C(=O)N[C@@H](CCCCN)C(=O)N[C@@H]([C@@H](C)O)C(=O)N1)C(=O)O [[^67Ga]Ga-DOTA-TATE, metal not drawn]
[1]
  log D: − 3.0 ± 0.1

## C[C@@H](O)[C@@H]1NC(=O)[C@H](CCCCN)NC(=O)[C@@H](Cc2c[nH]c3ccccc23)NC(=O)[C@H](Cc2cccc3ccccc23)NC(=O)[C@@H](NC(=O)[C@@H](Cc2ccccc2)NC(=O)CN2CCN(CC(=O)O)CCN(CC(=O)O)CCN(CC(=O)O)CC2)CSSC[C@@H](C(=O)N[C@H](CO)[C@@H](C)O)NC1=O [[^68Ga]Ga-DOTA-NOC, [^68Ga][Ga-DOTA^0,1-Nal^3]-octreotide, metal not drawn, reference compound]
In vivo [2]; [15]
  tissue uptake at 1 h: 4.6 ± 1 %ID/g
In vivo [2]; [16]
  tissue uptake at 1 h: 1.1 ± 0.4 %ID/g
In vivo [2]; [17]
  tissue uptake at 1 h: 1.7 ± 0.8 %ID/g
In vivo [2]; [18]
  tissue uptake at 1 h: 0.7 ± 0.2 %ID/g
In vivo [2]; [19]
  tissue uptake at 1 h: 3.3 ± 0.7 %ID/g
In vivo [2]; [20]
  tissue uptake at 1 h: 9.8 ± 3.2 %ID/g
In vivo [2]; [21]
  tissue uptake at 1 h: 3.3 ± 1.4 %ID/g
In vivo [2]; [22]
  tissue uptake at 1 h: 0.5 ± 0.2 %ID/g
In vivo [2]; [23]
  tissue uptake at 1 h: 16 ± 3 %ID/g
In vivo [2]; [24]
  tissue uptake at 1 h: 8.2 ± 2.8 %ID/g
In vivo [2]; [25]
  tissue uptake at 1 h: 30 ± 8 %ID/g
In vivo [2]; [26]
  tissue uptake at 1 h: 12 ± 5 %ID/g
In vivo [2]; [27]
  tissue uptake at 1 h: 12 ± 2 %ID/g
In vivo [2]; [28]
  tissue uptake at 1 h: 0.8 ± 0.2 %ID/g

## CC(C)[C@@H]1NC(=O)[C@H](CCCCN)NC(=O)[C@@H](Cc2c[nH]c3ccccc23)NC(=O)[C@H](Cc2ccc(O)c(I)c2)NC(=O)[C@@H](NC(=O)[C@@H](Cc2ccc(N)c(I)c2)NC(=O)CN2CCN(CC(=O)O)CCN(CC(=O)O)CCN(CC(=O)O)CC2)CSSC[C@@H](C(=O)N[C@H](C(N)=O)[C@@H](C)O)NC1=O [[^68Ga]Ga-DOTA-ST8950, metal not drawn]
In vivo [2]; [15]
  tissue uptake at 2 h: 4.3 ± 1 %ID/g
In vivo [2]; [16]
  tissue uptake at 2 h: 0.8 ± 0.2 %ID/g
In vivo [2]; [17]
  tissue uptake at 2 h: 2.4 ± 0.8 %ID/g
In vivo [2]; [18]
  tissue uptake at 2 h: 0.8 ± 0.2 %ID/g
In vivo [2]; [19]
  tissue uptake at 1 h: 2.4 ± 1.3 %ID/g
  tissue uptake at 2 h: 2.7 ± 0.3 %ID/g
In vivo [2]; [20]
  tissue uptake at 2 h: 14 ± 2 %ID/g
In vivo [2]; [29]
  tissue uptake at 1 h: 6.4 ± 1.9 %ID/g
  tissue uptake at 2 h: 7.3 ± 1.5 %ID/g
In vivo [2]; [21]
  tissue uptake at 2 h: 3.5 ± 0.7 %ID/g
In vivo [2]; [22]
  tissue uptake at 2 h: 0.6 ± 0.1 %ID/g
In vivo [2]; [23]
  tissue uptake at 1 h: 8.5 ± 4.5 %ID/g
In vivo [2]; [24]
  tissue uptake at 1 h: 8.5 ± 1.9 %ID/g
  tissue uptake at 2 h: 7.8 ± 1.2 %ID/g
In vivo [2]; [25]
  tissue uptake at 1 h: 26 ± 8 %ID/g
  tissue uptake at 2 h: 32 ± 7 %ID/g
In vivo [2]; [26]
  tissue uptake at 1 h: 15 ± 6 %ID/g
  tissue uptake at 2 h: 14 ± 3 %ID/g
In vivo [2]; [27]
  tissue uptake at 2 h: 8.4 ± 1.2 %ID/g
In vivo [2]; [30]
  tissue uptake at 2 h: 8.6 ± 2.1 %ID/g
In vivo [2]; [28]
  tissue uptake at 2 h: 1.5 ± 0.3 %ID/g
In vivo [3]; [19]
  tissue uptake at 1 h: 2.5 ± 0.2 %ID/g
In vivo [3]; [29]
  tissue uptake at 1 h: 6.2 ± 0.6 %ID/g
In vivo [3]; athymic Nude-Foxn1^nu/Foxn1^+, SST(-) tumor uptake
  tissue uptake at 1 h: 1.4 ± 0.5 %ID/g
In vivo [3]; [30]
  tissue uptake at 1 h: 7.4 ± 1.9 %ID/g

## C[C@@H](O)[C@@H]1NC(=O)[C@H](CCCCN)NC(=O)[C@@H](Cc2c[nH]c3ccccc23)NC(=O)[C@H](Cc2cccc3ccccc23)NC(=O)[C@@H](NC(=O)[C@@H](Cc2ccccc2)NC(=O)CN2CCN(CC(=O)O)CCN(CC(=O)O)CCN(CC(=O)O)CC2)CSSC[C@@H](C(=O)N[C@H](CO)[C@@H](C)O)NC1=O [^natGa-DOTA-NOC, metal not drawn, reference compound]
Human SST2 [4]
  IC50: 0.7 nM
Human SST5 [5]
  IC50: 3.4 nM
Human SST2 [6]
  EC50: 0.59 nM
Human SST5 [7]
  EC50: 3.3 nM

## CC(C)[C@@H]1NC(=O)[C@H](CCCCN)NC(=O)[C@@H](Cc2c[nH]c3ccccc23)NC(=O)[C@H](Cc2ccc(O)c(I)c2)NC(=O)[C@@H](NC(=O)[C@@H](Cc2ccc(N)c(I)c2)NC(=O)CN2CCN(CC(=O)O)CCN(CC(=O)O)CCN(CC(=O)O)CC2)CSSC[C@@H](C(=O)N[C@H](C(N)=O)[C@@H](C)O)NC1=O [^natGa-DOTA-ST8950, metal not drawn]
Human SST2 [4]
  IC50: 0.32 nM
Human SST2 [6]; after ^natGa-DOTA conjugation
  Factor of reduction of agonistic potency for SST2 vs ST8950: 1.6
Human SST2 [6]
  EC50: 0.46 nM

## CC(C)[C@@H]1NC(=O)[C@H](CCCCN)NC(=O)[C@@H](Cc2c[nH]c3ccccc23)NC(=O)[C@H](Cc2ccc(O)cc2)NC(=O)[C@@H](NC(=O)[C@@H](Cc2ccc(N)cc2)NC(=O)CN2CCN(CC(=O)O)CCN(CC(=O)O)CCN(CC(=O)O)CC2)CSSC[C@@H](C(=O)N[C@H](C(N)=O)[C@@H](C)O)NC1=O [^natGa-DOTA-ST8951, metal not drawn]
Human SST2 [4]
  IC50: 7.5 nM
Human SST2 [6]
  EC50: 9.8 nM

## C[C@@H](O)[C@H](NC(=O)[C@@H]1CSSC[C@H](NC(=O)[C@@H](Cc2ccccc2)NC(=O)CN2CCN(CC(=O)O)CCN(CC(=O)O)CCN(CC(=O)O)CC2)C(=O)N[C@@H](Cc2ccc(O)cc2)C(=O)N[C@H](Cc2c[nH]c3ccccc23)C(=O)N[C@@H](CCCCN)C(=O)N[C@@H]([C@@H](C)O)C(=O)N1)C(=O)O [^natGa-DOTA-TATE, metal not drawn]
Human SST5 [7]
  EC50: 39 nM
SST5 [8]
  IC50: > 1000 nM

## Pasireotide
Human SST2 [9]
  IC50: 3.1 nM
Human SST5 [10]
  IC50: 0.2 nM
Human SST2 [11]
  EC50: 1.1 nM
Human SST5 [12]
  EC50: 0.6 nM

## [^68Ga][Ga-1,4,7,10-tetraazacyclododecane-1,4,7,10-tetraacetic acid^0,Tyr^3]-octreotide [[^68Ga]Ga-DOTA-TOC]
SST2
  IC50: 2.5 ± 0.5 nM
SST5 [13]
  IC50: 73 ± 21 nM

## [^68Ga][Ga-DOTA^0,Tyr^3,Thr^8]-octreotate [[^68Ga]Ga-DOTA-TATE]
SST2
  IC50: 0.2 ± 0.04 nM
[14]
  Blood values: 0.4 ± 0.0 %IA/g
  Liver uptake: 0.4 ± 0.2 %IA/g
